Data published in EP2123670B1.

Tests used:
Details in all cases: remark: other sources report otherwise
factor XIIa, P00748 [1] = biological target: T1, factor XIIa, P00748; experiment: SPR, Ir-CPI immobilised; two-state model, forward rate of the conformation change
T1 chain: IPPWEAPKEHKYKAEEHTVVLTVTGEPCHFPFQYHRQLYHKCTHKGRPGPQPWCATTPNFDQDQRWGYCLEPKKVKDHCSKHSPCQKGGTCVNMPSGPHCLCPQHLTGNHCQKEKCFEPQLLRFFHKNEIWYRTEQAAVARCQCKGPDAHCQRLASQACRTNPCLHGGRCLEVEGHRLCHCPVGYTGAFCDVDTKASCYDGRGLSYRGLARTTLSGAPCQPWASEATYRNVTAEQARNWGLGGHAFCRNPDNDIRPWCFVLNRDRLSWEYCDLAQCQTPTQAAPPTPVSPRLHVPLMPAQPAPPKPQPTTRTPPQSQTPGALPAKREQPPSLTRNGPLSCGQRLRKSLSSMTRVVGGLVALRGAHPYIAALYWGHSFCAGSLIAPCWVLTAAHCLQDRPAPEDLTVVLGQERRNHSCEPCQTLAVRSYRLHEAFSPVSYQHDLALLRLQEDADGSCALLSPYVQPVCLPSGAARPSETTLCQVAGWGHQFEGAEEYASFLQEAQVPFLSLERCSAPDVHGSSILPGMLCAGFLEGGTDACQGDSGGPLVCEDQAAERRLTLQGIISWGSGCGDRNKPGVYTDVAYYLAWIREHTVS

factor XIIa, P00748 [2] = biological target: T1, factor XIIa, P00748; experiment: SPR, Ir-CPI immobilised; two-state model, backward rate of the conformation change
factor XIIa, P00748 [3] = biological target: T1, factor XIIa, P00748; experiment: SPR, Ir-CPI immobilised; two-state model, global equilibrium constant K = ka1ka2/kd1kd2
factor XIIa, P00748 [4] = biological target: T1, factor XIIa, P00748; experiment: SPR (BIAcore X), Ir-CPI immobilised at about 200 RU, factor injected at 5-300 nM; two-state model, ka1 (first step)
factor XIIa, P00748 [5] = biological target: T1, factor XIIa, P00748; experiment: SPR (BIAcore X), Ir-CPI immobilised at about 200 RU, factor injected at 5-300 nM; two-state model, kd1 (first step)

B1: Ir-CPI, Q9GP15 20-86 (protein)
chain: ANHKGRGRPAKCKLPPDDGPCRARIPSYYFDRKTKTCKEFMYGGCEGNENNFENITTCQEECRAKKV
Work on B1 yielded a ka2 (factor XIIa, P00748 [1]) of 0.655 s⁻¹, a kd2 (factor XIIa, P00748 [2]) of 0.105 s⁻¹ and a Ka (factor XIIa, P00748 [3]) of 1.68e+08 M⁻¹. The kon (factor XIIa, P00748 [4]) was 219000 M⁻¹ s⁻¹ and the koff (factor XIIa, P00748 [5]) was 0.0946 s⁻¹.
